Test results: article PMC3365014, “Specific Recognition of p53 Tetramers by Peptides Derived from p53 Interacting Proteins” (PLoS ONE, 2012)
pKd: −log10 of the molar value.

Key:
[1] = biological target: WS100B(61–75), fluorescein-labeled; assay: fluorescence polarisation; fluorescence anisotropy at increasing NaCl; p53CTD titrated into 200 nM peptide; 10 mM sodium phosphate pH 7.2, 25°C; ln(Kd) against ln(NaCl activity) fit linearly and extrapolated to physiological ionic strength
[2] = biological target: p53 monomer (Homo sapiens) (UniProt P04637); settings: cited from earlier work

| Estimated physiological Kd [1] | Substance | pKd [2] |
| --- | --- | --- |
| 19 µM | p53 C-terminal domain (p53CTD, residues 293–393) (from UniProt P04637 293-393) (domain or fragment) |  |
|  | p53 monomer (from UniProt P04637) | 9.00 |
